Data as given in patent WO2013125221A1.
Where no end group is shown, it is not given here.

Tests used:
[1] = target: Herceptin scFv antibody (His-tagged, self-prepared); assay: peptide magnetic bead immunoprecipitation, SDS-PAGE / anti-His blot, band intensity semi-quantified
[2] = target: Herceptin scFv antibody (His-tagged, self-prepared); assay: peptide magnetic bead immunoprecipitation, SDS-PAGE / anti-His blot, semi-quantitative

Herceptin scFv antibody recovery rate [1] [%]	Herceptin scFv antibody recovery rate [2] [%]	Binder
30	23	WSEYDIPTPQIP (also: biotinylated (site not given here)) [code 4 peptide]
30		FHRSHWYQTWVP (also: biotinylated (site not given here)) [code 166 peptide]
